# Assay results from the supplement of paper PMC9170038.
# Tested on: MS2 coat protein
# Experiment: apparent KD of MS2 coat protein, switch OFF state (with FMN for OFF switches, without FMN for ON switches); designed switch direction (-1 OFF switch, 1 ON switch): 1; higher = weaker reporter binding
# Settings: FMN input: 0 or 200 uM; Eterna round: R93 (includes R88 designs)
# Procedure, shortened: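 Titrations with SNAP-549-labelled MS2 coat protein ran in twofold steps from 0.7 or 1.5 nM to 3 µM, each step taking 0.8–1.5 h at the start and 10–20 min toward the end. The targets were designed RNA switches transcribed on-chip from Illumina sequencing clusters, held in 100 mM Tris-HCl pH 7.5, 80 mM KCl, 4 mM MgCl2, without or with constant ligand. Apparent KD was taken per design as the median of normalised cluster binding-curve fits.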
row,Sequence,apparent KD of MS2 coat protein [nM]
1,GAAAUACAUGAGGAUCACCCAUGUUAGGUGGGUCAAGGAUAUUGAGAUAAAUAAAAAUCUCGAGAAGGUGAAUAAA [JR_SS001_Sub202],199
2,"GAUAAACAUGAGGAUCACCCAUGUAGAUAUAUGGGAGGAUAUACAAAGACGAUAGUCAAAGUAGAAGGCCUAAUAG [77%, Mat - Mod of Eli - With 4 more U's]",84
3,GCUUAUCCAUGCUAGGAUAUCGGCGAGAAAACAUGAGGAUCACCCAUGUGCUUGCAUAAAAGUCACGAGAAGGAGCCUGAUGGAC [Quanletira],17.3
4,AAAUAAAUGACUCAGGAUAUAUCAGAGAAAACAUGAGGAUCACCCAUGUAAUAAUAACAUGUGUGGUAGAAGGGAGUCAAUAAAU [LROPPY Same State 2 - v03_deltaG=2.1],49.3
5,AAGUCACAUGAGGAUCACCCAUGUCGUAAACGAUGAGGAUAUAGGAAAAAAAAAAAAAAACUAGAAGGUAUAACAA [SameState1-01],38.5
6,AAAUAAAUAAAAAAGGAUAUAAAAAAGUACACAUGAGGAUCACCCAUGUGUACACAUGGGUGAUCCUAGAAGGAAAAAUAAAAAA [SS2: 91 No MS2],73.3
7,AAACCACAUGAGGAUCACCCAUGUCCAAAAAAACAAGGAUAUAUAAAAAAAAAAAAAAAAAUAGAAGGUGUAAAAA [<insert title here>],113
8,AAUAUACAUGAGGAUCACCCAUGUUUUAAUAACUCAGGAUAUACGGGUGAAAACAGCAUAGUAGAAGGGAGAAAAA [SameState1 Malc#2],113
9,AAAAGACAUGAGGAUCACCCAUGUAAAAACAUAGGAGGAUAUGUCUUGAAAAAAGACUUGACAGAAGGCCUUUGUC [SS1 - 52],75.2
10,GAAAAACAUGAGGAUCACCCAUGUAGAAAUAUGGGAGGAUAUACAAAGACGAAAGUCAAAGUAGAAGGCCUAAAGA [Mat - Same State 1 - Eli mod - 34],91.1
11,AAAAAAAAAAGUGAGGAUAUGGGAAAAUUAACAUGAGGAUCACCCAUGUGAUAAAAAAAAAAAAACCAGAAGGUACAAAAAAAAAA [Same 2],35
12,GUGUAAAGAAUCGAGGAUAUCCAAAAAAGCACAUGAGGAUCACCCAUGUAAGAGAGAGAAUAAUGGGAGAAGGCGAGUUAUCGGU [JR_SS002_Sub1712],64.1
13,CGAAAGGAGAGAGAGGAUAUCCAAAGGAAAACAUGAGGAUCACCCAUGUAGAAGGUAGGAGAUUGGGAGAAGGCUCAAGAGAGUA [salish99-ss2-149],36.3
14,CGAAAGUAUGCACAGGAUAUGUACAGGCUAACAUGAGGAUCACCCAUGUGAAAAUGGACCAUGUCGCAGAAGGGUGCCCUCCCGA [Mageor],40.2
15,AGCAUCACCAGUCAGGAUAUGUAGGCCUUGACAUGAGGAUCACCCAUGUGGACGAAACACCGGCCACAGAAGGGAUUGUAAAUAA [Ries],67.4
16,AGCGAACAUGAGGAUCACCCAUGUCCCGCGAAUCAAGGAUAUGGGCAGAUGAGUCCUGCGCCAGAAGGUGAGUAAA [Rigeesar],132
17,AAAAUACAUGAGGAUCACCCAUGUGAAAAUAUGGGAGGAUAUACCGAAAAAAAAAAAAAGGUAGAAGGCCCAAAAA [SS! 1 MT 5],69.2
18,UUACAGCACAGGUAGGAUAUGUAGGGUGGUACAUGAGGAUCACCCAUGUAUCCACCCUUCGAAAGGCAGAAGGGCCUGUCGCCGC [Leanisqube],15
19,AAAAAAAAAAGUCAGGAUAUACAAAUUUUUACAUGAGGAUCACCCAUGUUAAGGAAAAAAAAAAAGUAGAAGGGACAAAAAAAAAA [Same State 2 - Omei 3],21.4
20,UGGAGACAUGAGGAUCACCCAUGUGAGAAGAGGCGAGGAUAUCGAAAAAAAAAAAAAAAACGAGAAGGCGCGAGAA [salish99-SS1-007],56.3
21,AAAAAACAUGAGGAUCACCCAUGUCGAAAGACAUGAGGAUAUGUACAGACUUCGGUCUGUACAGAAGGCAUGAAAA [SS1 - 1012],79.3
22,GAAAAACAUGAGGAUCACCCAUGUGAGAAUAUGGGAGGAUAUACGAAGACGAGAGUCAAAGUAGAAGGCCUAAAAG [Mat - Same State 1 - Eli mod - 30],82.9

row,Sequence,apparent KD of MS2 coat protein [nM]
1,"AAACCACAUGAGGAUCACCCAUGUAAAAAUAUGGGAGGAUAUCGGAAUAAAAUAAAGAAACGAGAAGGCCUAAAAG [59%, Flamingo, 4]",292
2,AAGAAACAUGAGGAUCACCCAUGUAGAAACAUGGGAGGAUAUACAAAGACGAAAGUCAAAGUAGAAGGCCUAAAAA [Mat - Same State 1 - Mod - D165],141
3,"AGGAAACAUGAGGAUCACCCAUGUAUAAAAUAGGGAGGAUAUACUAAGACGAAAGUCAUAGUAGAAGGUCCAAAAA [76%, Meechl, 13]",23.4
4,CCCUCGCAAUAACAGGAUAUACAUGGUCAAACAUGAGGAUCACCCAUGUGAGGAAGUUGGCGGUCGUAGAAGGGUUGUUGGCUCA [Beisvesoqu],166
5,CCCAAUGCAACGAAGGAUAUCCGUCAUGCUACAUGAGGAUCACCCAUGUACUGGCAGCGCAAGGCGGAGAAGGUCGGGUGCUGUG [Leusesbe],12.6
6,AAUAAACAUGAGGAUCACCCAUGUAGAAAUAUGGGAGGAUAUACAAAGACGAAAGUCAAAGUAGAAGGCCUAAUAA [Mat - Same State 1 - Mod - D153],58.5
7,AUGAAUAGCAUCGAGGAUAUCCAGUCAUGAACAUGAGGAUCACCCAUGUAAGAGAGAGUAUAAUGGGAGAAGGCGAGUAAUCGAU [JR_SS002_Sub1703],105
8,GAAAAACAUGAGGAUCACCCAUGUGGAAAUAUGGGAGGAUAUACAAAGACGGAAGUCAAAGUAGAAGGCCUAAAAG [Mat - Same State 1 - Eli mod - D10],119
9,CGAAAGGAGAGAGAGGAUAUCCAAAGGAAAACAUGAGGAUCACCCAUGUAGAAGGUAGGAGAUUGGGAGAAGGCUCAAGAGAGAU [salish99-ss2-147],34.3
10,GGAAGACAUGAGGAUCACCCAUGUGGGAUUAUGGGAGGAUAUACAAAGACGAGAGUCAGAGUAGAAGGCCUAGGAG [salish99-ss1-122(!)],107
11,AGACAUAAAAGAGAGGAUAUCCAAAAGAAAACAUGAGGAUCACCCAUGUGAAAGAAAAUAAAAUGGGAGAAGGCUCACAUACAGA [Topaz 36],27.4
12,AACAGACAUGAGGAUCACCCAUGUAGAAUUAUGGGAGGAUAUACAAAGACGAGAGUCAGAGUAGAAGGCCUAGGAA [salish99-ss1-165],89.7
13,AAUAAUUAUAUGGAGGAUAUCCGUAAUAAGACAUGAGGAUCACCCAUGUAAUAAGGUUAAAUAAAGGAGAAGGCCAAGGGUGAAA [JR_SS002_Sub004],344
14,AAAACACAUGAGGAUCACCCAUGUAGAAAUACGGGAGGAUAUGCGAAAACGAAAGACAAAGCAGAAGGCCUAAAAG [saturn 6],35
15,AGAAAUAAAAGAGAGGAUAUGCAAAAGAUAACAUGAGGAUCACCCAUGUAAAAGAAAAUAAAUGGGUAGAAGGCUCAAAAUAAGA [Jieux modified],64.9
16,GAAAAACAUGAGGAUCACCCAUGUGAAAACUUGGGAGGAUAUACAAAGACGAAAGUCGAAGUAGAAGGCCUAUAAG [Same State 1.4l (Mat - Mod of Eli - )],85.9
17,GACGAACAUGAGGAUCACCCAUGUAAAAACGUACAAGGAUAUGUGUGGAAACCGUACUAUACAGAAGGUGUCUGUC [SS1 - 96],38.6
18,AAAUAAAUGACUAAGGAUAUCUCAGAGAAAACAUGAGGAUCACCCAUGUAAUAAUAACAUGUGUGAGAGAAGGUAGUCAACAAAC [Same State 2.4 (Pariah 4 -changed stack on 9nt hairpin)],70.1
19,UAUCCGGCAGUGUAGGAUAUGUUGUAGUCAACAUGAGGAUCACCCAUGUGGAUUAUAUAAGAUUCACAGAAGGGCACUGCAUUGC [Geiner],74.1
20,AAAAGACAUGAGGAUCACCCAUGUCAAAAGACAUGAGGAUAUGUACAGACUUCGGUCUGUACAGAAGGCAUAAAAA [SS1 - 1060],32.5
21,CGGAAGGAGAGAGAGGAUAUCCAAAGGAAAACAUGAGGAUCACCCAUGUAGAAGGUAGGAAAUUGGGAGAAGGCUCAAGAGACAG [salish99-ss2-125],55.9
